Series [1] addresses T1, dmL2HGDH (Drosophila melanogaster, UniProt Q9VJ28).
T1 construct: gene L2HGDH; residues 41-455, mitochondrial-targeting peptide (1-40) removed; N-terminal His6-SUMO tag cleaved by ULP1; E. coli; tetramer about 178 kDa
Description: inhibition of L-2-HG oxidation, DCIP reduction at […] nm. The class given is biochemical. The conditions noted are these: read-out: % inhibition at 10 mM.

Series [2] concerns the target T1, dmL2HGDH. Description: crystal structure, […] Å; absorbance at […] nm. The class given is binding. The conditions noted are these: FAD co-purified from E. coli expression.
Series [3] deals with dmL2HGDH with Cys77 substituted by alanine (Drosophila melanogaster) (UniProt Q9VJ28). Description: not stated; tetrameric state of the Cys77 to alanine mutant in solution (Fig. S11E).
Series [4] concerns the molecule itself. As to the kind of experiment: SEC-MALS; protein solution 2 mg/ml on Superdex 200 10/300; 20 mM Hepes pH 7.4, 200 mM NaCl; 0.4 ml/min.
Substrate in the series “purified protein”: O=C(O)CC[C@H](O)C(=O)O
As to the kind of experiment: purified protein. Format: biochemical, Drosophila melanogaster. The conditions noted are these: 200 μM phenazine methosulfate, 100 μM DCIP, 50 mM Hepes pH 7.5, about 25 °C, corrected for FAD occupancy.

As to `O=C(O)C[C@H](O)C(=O)O` [L-MAL], the inhibition (commonly the share of the control response that was lost under treatment) at 10000 µM at dmL2HGDH [1] was less than 30%.

As for `Cc1cc2nc3c(=O)[nH]c(=O)nc-3n(C[C@H](O)[C@H](O)[C@H](O)COP(=O)(O)OP(=O)(O)OC[C@H]3O[C@@H](n4cnc5c(N)ncnc54)[C@H](O)[C@@H]3O)c2cc1C` [FAD], the “crystal structure, 2.85 Å; absorbance at 450 nm” value at dmL2HGDH [2] was “In each monomer, there are an FAD bound at the active site”.

As to “dmL2HGDH with Cys77 substituted by alanine (from UniProt Q9VJ28 41-455) (enzyme)”, the stoichiometry N (as a rule, a count of units in the complex or per binding partner) in series [3] turned out to be 4.

B1: Drosophila melanogaster L-2-hydroxyglutarate dehydrogenase (dmL2HGDH), residues 41-455 (enzyme, UniProt Q9VJ28 41-455, looked up)
chain: GDYDLVVVGGGIVGAASAREIVLRHPSLKVAVLEKECKLAKHQSGHNSGVIHAGIYYKPGTLKARLCVEGMHLAYAYLDEKKIPYKKTGKLIVATDEKEVKLLKDLEKRGIANNVPDLRMIEGSEIQEIEPYCQGVMALHSPHTGIVDWGLVTEHYGQDFKQCGGDIYLDFNVSKFTETKEGTDYPVTIHGAKPGQTVRTKNVLTCGGLQSDLLAEKTGCPRDPRIVPFRGEYLLLTKEKQHMVKGNIYPVPDPRFPFLGVHFTPRMDGSIWLGPNAVLALKREGYTWGDINLFELFDALRYPGFVKMASKYIGFGLSEMSKSWFINLQIKALQKYIPDITEYDIQRGPAGVRAQAMDLDGNLVDDFVFDRGQGSGALAKRVLHCRNAPSPGATSSLAIAKMIADKIENEFSIGK
notes: L-2-hydroxyglutarate dehydrogenase, Drosophila melanogaster, residues 41-455; the N-terminal 1 to 40 residues (mitochondrial-targeting peptide) removed; Gene synthesized by Sangon Biotech; also called WT dmL2HGDH; truncated dmL2HGDH; source: E. coli BL21 Codon-Plus (DE3)-RIPL, purified (Ni-NTA, tag removal by ULP1, Superdex 200); not shown: His6, N-terminal, cleaved; SUMO, N-terminal, cleaved
In the case of B1, in series [4], the “stoichiometry N” value stood at 4. In “purified protein”, the Km (as a rule, the concentration of substrate that gives half-maximal velocity) was 130 ± 8 µM; the maximal velocity (Vmax) – broadly, the top rate of the reaction or transport when substrate is in excess – came to 10.2 µmol/min/mg; the kcat (usually the number of substrate molecules converted per active site and unit of time at saturation) came to 7.76 ± 0.11 s⁻¹; the specificity constant (kcat/Km) – broadly, the turnover number divided by the Michaelis constant – was 59700 M⁻¹ s⁻¹.

B2: dmL2HGDH (Drosophila melanogaster; S88A) (protein)
chain: GDYDLVVVGGGIVGAASAREIVLRHPSLKVAVLEKECKLAKHQSGHNAGVIHAGIYYKPGTLKARLCVEGMHLAYAYLDEKKIPYKKTGKLIVATDEKEVKLLKDLEKRGIANNVPDLRMIEGSEIQEIEPYCQGVMALHSPHTGIVDWGLVTEHYGQDFKQCGGDIYLDFNVSKFTETKEGTDYPVTIHGAKPGQTVRTKNVLTCGGLQSDLLAEKTGCPRDPRIVPFRGEYLLLTKEKQHMVKGNIYPVPDPRFPFLGVHFTPRMDGSIWLGPNAVLALKREGYTWGDINLFELFDALRYPGFVKMASKYIGFGLSEMSKSWFINLQIKALQKYIPDITEYDIQRGPAGVRAQAMDLDGNLVDDFVFDRGQGSGALAKRVLHCRNAPSPGATSSLAIAKMIADKIENEFSIGK
notes: residues 41-455, mitochondrial-targeting peptide (1-40) removed; N-terminal His6-SUMO tag cleaved by ULP1; E. coli; tetramer about 178 kDa
Turning to B2, in the series “purified protein”, the Michaelis-Menten constant (Km) turned out to be 560 ± 150 µM, the Vmax stood at 1.56 µmol/min/mg, the catalytic constant (kcat) worked out at 1.19 ± 0.13 s⁻¹ and the catalytic efficiency (kcat/Km) turned out to be 2130 M⁻¹ s⁻¹.

B3: dmL2HGDH (Drosophila melanogaster; R393A) (protein)
chain: GDYDLVVVGGGIVGAASAREIVLRHPSLKVAVLEKECKLAKHQSGHNSGVIHAGIYYKPGTLKARLCVEGMHLAYAYLDEKKIPYKKTGKLIVATDEKEVKLLKDLEKRGIANNVPDLRMIEGSEIQEIEPYCQGVMALHSPHTGIVDWGLVTEHYGQDFKQCGGDIYLDFNVSKFTETKEGTDYPVTIHGAKPGQTVRTKNVLTCGGLQSDLLAEKTGCPRDPRIVPFRGEYLLLTKEKQHMVKGNIYPVPDPRFPFLGVHFTPRMDGSIWLGPNAVLALKREGYTWGDINLFELFDALRYPGFVKMASKYIGFGLSEMSKSWFINLQIKALQKYIPDITEYDIQRGPAGVAAQAMDLDGNLVDDFVFDRGQGSGALAKRVLHCRNAPSPGATSSLAIAKMIADKIENEFSIGK
notes: as for B2
Take B3: in “purified protein”, the Km is 240 ± 30 µM, the Vmax amounted to 5.68 µmol/min/mg, the kcat is 4.34 ± 0.15 s⁻¹ and the specificity constant (kcat/Km) came to 18100 M⁻¹ s⁻¹.

Values taken from article PMC10726252, “Structure and biochemical characterization of L-2-hydroxyglutarate dehydrogenase and its role in the pathogenesis of L-2-hydroxyglutaric aciduria” (The Journal of Biological Chemistry, 2023).
